Measurements from the Human Domainome abundance scans (Beltran et al. 2025).

B1: POU domain, class 3, transcription factor 3, residues 408 to 463; numbered along this chain, P20264 (parent)
chain: KKRTSIEVSVKGALESHFLKCPKPSAQEITNLADSLQLEKEVVRVWFCNRRQKEKR

Variants of: B1
Experiment: abundance fitness (aPCA) (normalised: wild type 0, dead -1); higher = more abundant; growth selection in yeast, the domain comes from the species named
Details: Homo sapiens

Abundance fitness: each site, then its substitutions
H17: G -0.683, L -0.188, P -0.807, N -0.189, Q -0.134, F -0.104
L32: T -0.78, N -0.897, S -0.95, W -0.967, K -1.06, R -0.758, F -0.556, A -0.92, V -0.245
I29: K -1.07, F -0.832, Q -0.822, C -0.574, V -0.204
T30: Y -0.337, P -0.847, E -0.107, D 0.048, W -0.327, R -0.17
A13: L -0.093, P -0.353, N -0.274, C -0.199, W -0.344
S16: Y -0.004, R -0.011, C -0.086, I -0.361, K 0.036, T -0.067, N -0.044, P -0.441, W -0.502, V -0.261
C21: H -0.031, L -0.611, I -0.73, Q 0.084, G -0.468, V -0.249, M -0.314, E 0.048
C48: M 0.026, I 0.045, Q 0.131, D -0.029, V 0.068, S 0.045, K -0.074, P -0.657
Q27: P -0.279, L -0.091, F -0.27, Y -0.195, V -0.11, N 0.098, W -0.222, E -0.036, G -0.076
E54: G -0.234, Q -0.241, K -0.658, A -0.185, S -0.365
V10: A -0.005, S -0.153, C -0.108, T -0.023
K20: G -0.366, M -0.187, Y -0.335, D -0.197, C -0.465, R -0.05
L14: C -0.662, Y -0.815, T -0.839
K40: R -0.06, H -0.136, S 0.016, G -0.056
T4: F -0.116, E -0.082, A -0.17, I -0.014, M -0.064, Q 0.005, P -0.257, Y -0.19, S -0.077
R51: Q -0.164, P -0.608, Y 0.243, H -0.361, I -0.207
E41: G -0.305, C -0.54, Q -0.414, N -0.318, R -0.352, M -0.534, D 0.037
F18: R -0.935, L -1.01, S -0.902, V -0.859, D -0.568
E28: P -0.838, K -0.538, I -0.223, W -0.59
P22: H -0.448, S -0.35
E7: N 0.063, L -0.09, T 0.134, Q -0.035, G 0.013, A -0.096, K 0.028, F -0.263
K55: S -0.011, Q -0.132, M -0.096, I -0.234, N 0.021, G 0.053, P -0.265
V43: P -0.818, F -1.02, R -0.931, C -0.714, Q -0.88, G -0.967
I6: Y -0.189, S -0.077, P 0.01, V -0.093, F -0.272, Q -0.084, A -0.015
K23: G -0.252, R -0.049, H -0.127, D 0.114, Y -0.05, Q -0.192, F -0.034, E -0.028
P24: I -0.731, R -0.918, M -0.867
V45: M -0.06, H 0.103, D 0.098, Y -0.28, T -0.028
N31: Y -0.009
A26: Y -0.087, V -0.1, H 0.071, F -0.297, D -0.004, C -0.102, T -0.081, E 0.031
G12: M 0.161, H -0.009, F -0.054, D 0.048, W -0.25, Y 0.103, P -0.056, K -0.035, A 0.227
K1: V -0.092, L -0.756, G -0.067, Y -0.258, R -0.263, D -0.124, N -0.072, Q -0.271, I -0.181
L36: N -0.869, Y -0.313, H -0.434
S9: F -0.285, A 0.054, V -0.132, E 0.072, H 0.092
E15: V -0.698, D -0.753, W -0.593, L -0.599, A -0.858
L38: I -0.048, A -0.693, K -0.895, S -0.699
S5: D -0.064, T 0.135, N 0.193, H 0.175, M 0.125, W -0.255, C 0.128, P 0.132
K53: G -0.212, N -0.248, T -0.067, M -0.167, C -0.152, Y -0.288, A 0.076, V -0.03, P -0.6
R3: T -0.077, S 0.026, K 0.067, C -0.415, V 0.031, H -0.273, I -0.023
A33: D -0.863, W -0.878, V -0.955, N -0.941, Y -0.836, E -0.964, S -0.052
F47: S -0.442, R -1.07
Q52: C -0.126, F -0.205, D 0.034, W -0.185, M -0.194, A 0.041, T -0.227
K11: V -0.085, A -0.099, I -0.006, R -0.045, C -0.141, N -0.27
E39: T -0.074, Q -0.322, L -0.719, F -0.948, D 0.124, M -0.428, S -0.055
V42: R -0.224, A 0.003, S -0.094, Q -0.016, L -0.091
R44: E 0.213, W -0.377
V8: H -0.052, T 0.161, D -0.075, C -0.171, G 0.055, I 0.1, W -0.141
R56: T -0.05, D -0.247, V -0.039, H -0.277, C -0.435, E 0.093, N -0.143, P -0.226
Q37: G 0.013, F -0.3, Y -0.342, L -0.188, S -0.054, C -0.156
N49: H -0.034, L -0.357, D -0.177, G -0.279, S -0.098, I -0.151, Y -0.381, M -0.274, R -0.278
K2: N -0.094, V -0.048, E -0.054, P -0.305, M -0.066, I -0.374, T -0.008, C -0.332
S25: P -0.373, M -0.681, E -0.287, N -0.092, V -0.45, G -0.172, T -0.075, H -0.593
S35: L -0.083, F -0.177, Q -0.04, C -0.079, R 0.117, M -0.133
L19: S -0.047, T -0.155, K -0.057, H -0.173, Q 0.002, G -0.238, M 0.033, F -0.346
R50: H -0.668, Q -0.275, L -0.739, I -0.809, T -0.883, P -0.853
